Experiment [1] addresses T1, recombinant preparation of soluble MAC-1 (UniProt P11215 17-1104; P05107 23-700). Nature of the experiment: MAC-1 capture ELISA titer over UV concentration; F1 after three freeze/thaw cycles -70° C. to 5° C.
Experiment [2] concerns the target T1, recombinant preparation of soluble MAC-1. Description: MAC-1 capture ELISA titer over UV concentration; freeze/thaw study, F4, held at 5° C. (control). In general terms: In an ELISA, binding on a coated surface is turned into a signal by an enzyme label.
The target is the same in experiment [3]. Description: MAC-1 capture ELISA titer over UV concentration; F2 after three freeze/thaw cycles -70° C. to 5° C.
For experiment [4] the target is unchanged. Description: MAC-1 capture ELISA titer over UV concentration; freeze/thaw study, F3, held at 5° C. (control).
The target is the same in experiment [5]. Nature of the experiment: MAC-1 capture ELISA titer over UV concentration; freeze/thaw study, F5, held at 5° C. (control).
For experiment [6] the target is unchanged. Nature of the experiment: MAC-1 capture ELISA titer over UV concentration; F5 after three freeze/thaw cycles -70° C. to 5° C.
For experiment [7] the target is unchanged. Description: MAC-1 capture ELISA titer over UV concentration; freeze/thaw study, F1, held at 5° C. (control).
Experiment [8] has the same target. Nature of the experiment: MAC-1 capture ELISA titer over UV concentration; F4 after three freeze/thaw cycles -20° C. to 5° C.
For experiment [9] the target is unchanged. Description: MAC-1 capture ELISA titer over UV concentration; F3 after three freeze/thaw cycles -70° C. to 5° C.
The target is the same in experiment [10]. Nature of the experiment: MAC-1 capture ELISA titer over UV concentration; F4 after three freeze/thaw cycles -70° C. to 5° C.
For experiment [11] the target is unchanged. Description: MAC-1 capture ELISA titer over UV concentration; F5 after three freeze/thaw cycles -20° C. to 5° C.
Experiment [12] has the same target. Description: MAC-1 capture ELISA titer over UV concentration; F1 after three freeze/thaw cycles -20° C. to 5° C.
The target is the same in experiment [13]. Description: MAC-1 capture ELISA titer over UV concentration; F3 after three freeze/thaw cycles -20° C. to 5° C.
The target is the same in experiment [14]. Nature of the experiment: MAC-1 capture ELISA titer over UV concentration; freeze/thaw study, F2, held at 5° C. (control).
Experiment [15] shares this target. Description: MAC-1 capture ELISA titer over UV concentration; F2 after three freeze/thaw cycles -20° C. to 5° C.

B1: recombinant humanized anti-CD18 antibody (rhuMAb CD18) (antibody, V domains shown)
VH: EVQLVESGGGLVQPGGSLRLSCATSGYTFTEYTMHWMRQAPGKGLEWVAGINPKNGGTSHNQRFMDRFTISVDKSTSTAYMQMNSLRAEDTAVYYCARWRGLNYGFDVRYFDVWGQGTLVTVSS
VL: DIQMTQSPSSLSASVGDRVTITCRASQDINNYLNWYQQKPGKAPKLLIYYTSTLHSGVPSRFSGSGSGTDYTLTISSLQPEDFATYYCQQGNTLPPTFGQGTKVEIKR
notes: Tested as an F(ab')2 of two light and two heavy chains linked by disulfide bonds, made in E. coli; It was humanized from murine muMAb H52; It says the antibody is directed to the CD18 chain of MAC-1; also called anti-CD18 F(ab')2 antibody; humanized H52 antibody
In the case of B1, the “Specific Activity (MAC-1/UV)” value was 1.03 ratio (MAC-1/UV) in experiment [1]; 0.98 ratio (MAC-1/UV) in [2]; 1.13 ratio (MAC-1/UV) in experiment [3]; 1.1 ratio (MAC-1/UV) in [4]; 1.14 ratio (MAC-1/UV) in experiment [5]; 1.09 ratio (MAC-1/UV) in experiment [6]. The “Specific Activity (MAC-1/UV)” value in experiment [7] was 1.05 ratio (MAC-1/UV); in experiment [8] it was 1.09 ratio (MAC-1/UV); in experiment [9], 1.1 ratio (MAC-1/UV); in [10] it was 1.06 ratio (MAC-1/UV); in [11], 1.09 ratio (MAC-1/UV); in experiment [12], 1 ratio (MAC-1/UV). The entries for the “Specific Activity (MAC-1/UV)” value in experiment [13], in [14] and in experiment [15] were 1.08 ratio (MAC-1/UV), 1.14 ratio (MAC-1/UV) and 1.2 ratio (MAC-1/UV), respectively.

For the origin of these results see US6991790 (Genentech, dated 2006).
